Test results: PMC3355655

Substrate: O=P(O)(O)O[C@H]1[C@H](O)[C@@H](OP(=O)(O)O)[C@H](OP(=O)(O)O)[C@@H](OP(=O)(O)O)[C@H]1O
Assay: purified protein
Conditions: Mg2+

B1: SHIP2 (SH2 (Src homology 2)-domain-containing inositol-phosphatase-2) (Homo sapiens) (protein)
chain: DEPDMISVFIGTWNMGSVPPPKNVTSWFTSKGLGKTLDEVTVTIPHDIYVFGTQENSVGDREWLDLLRGGLKELTDLDYRPIAMQSLWNIKVAVLVKPEHENRISHVSTSSVKTGIANTLGNKGAVGVSFMFNGTSFGFVNCHLTSGNEKTARRNQNYLDILRLLSLGDRQLNAFDISLRFTHLFWFGDLNYRLDMDIQEILNYISRKEFEPLLRVDQLNLEREKHKVFLRFSEEEISFPPTYRYERGSRDTYAWHKQKPTGVRTNVPSWCDRILWKSYPETHIICNSYGCTDDIVTSDHSPVFGTFEVGVTSQFISKKGLSKTSDQAYIEFESIEAIVKTASRTKFFIEFYSTCLEEYKKSFENDAQSSDNINFLKVQWSSRQLPTLKPILADIEYLQDQHLLLTVKSMDGYE
B1 gave a Km of 215 ± 28 µM.
